Measurements published in PMC6517596.

Biological target: KLF4 (Homo sapiens) (UniProt O43474)
Experiment: DPI-ELISA competition
Conditions: KLF4 0-150 ng against 80 ng Sp1; 2 pmol DNA; EMSA: 2 ug nuclear extract or 50 ng KLF4, 30 min on ice, 6% native PAGE; DPI-ELISA: 2 pmol biotin-DNA, 2 h; buffer, salt and pH not stated

Chain of UniProt O43474 (O43474 whole entry): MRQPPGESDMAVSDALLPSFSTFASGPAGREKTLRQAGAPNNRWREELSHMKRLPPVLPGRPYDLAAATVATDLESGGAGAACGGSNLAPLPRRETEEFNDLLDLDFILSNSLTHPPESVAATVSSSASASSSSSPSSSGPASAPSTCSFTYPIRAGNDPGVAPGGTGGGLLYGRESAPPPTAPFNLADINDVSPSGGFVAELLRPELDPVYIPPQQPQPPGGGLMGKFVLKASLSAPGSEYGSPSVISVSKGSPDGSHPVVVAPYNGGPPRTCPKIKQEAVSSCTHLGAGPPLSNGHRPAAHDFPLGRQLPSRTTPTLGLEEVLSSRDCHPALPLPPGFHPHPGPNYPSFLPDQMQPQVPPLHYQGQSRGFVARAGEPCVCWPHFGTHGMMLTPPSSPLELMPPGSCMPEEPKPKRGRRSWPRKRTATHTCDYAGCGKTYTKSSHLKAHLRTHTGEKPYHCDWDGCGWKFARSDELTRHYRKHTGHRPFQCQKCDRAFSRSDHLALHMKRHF

Sequence “GGTCCCAGAGCACGAGCCCCCGCCCCCGGTGGCCCC (double strand) [CPI-17 GC box 2 biotinylated]” has an IC50 of 29 ng.
